One data set concerns the target MBP-RhlR:mBTL (Pseudomonas aeruginosa, UniProt P54292 1-241). Put plainly: ITC; mBTL; EMSA: 20 mM Tris-HCl pH 8, 50 mM KCl, 1 mM EDTA, 1 mM DTT, 1.5 mg/mL poly-IC, 50 ug/mL BSA, 10% glycerol, room temp 15 min; ITC: 25 C, S200 buffer (200 mM NaCl, 20 mM Tris-HCl pH 8, 1 mM DTT), 20 uM DNA titrated into 1 uM protein. As to conditions: protein: recombinant; tags: N-terminal MBP (pMALC2x); chain copies: 2; duplex not explicitly stated.

A further data set has as its target MBP-RhlR* (Pseudomonas aeruginosa, UniProt P54292 1-241, Y64F;W68F;V133F). Put plainly: ITC; no ligand; EMSA: 20 mM Tris-HCl pH 8, 50 mM KCl, 1 mM EDTA, 1 mM DTT, 1.5 mg/mL poly-IC, 50 ug/mL BSA, 10% glycerol, room temp 15 min; ITC: 25 C, S200 buffer (200 mM NaCl, 20 mM Tris-HCl pH 8, 1 mM DTT), 20 uM DNA titrated into 1 uM protein. As to conditions: protein: recombinant; tags: N-terminal MBP (pMALC2x); chain copies: 2; duplex not explicitly stated. A general note: ITC needs no label: the signal is the heat of the interaction.

From article PMC6564026, “An autoinducer-independent RhlR quorum-sensing receptor enables analysis of RhlR regulation” come the findings set out here.

What is called Kd is the constant that tells how readily two partners part at equilibrium.

B1: rhl-box consensus (dsDNA)
DNA 1: ACCTGCCAGATTTCGCAGGT
DNA 2: ACCTGCGAAATCTGGCAGGT
For the molecule B1, the Kd with MBP-RhlR:mBTL is 23 nM; with MBP-RhlR*, 34 nM.
